Target: human claudin-1 (human) (UniProt O95832)
Assay: confocal fluorescence on SW620 cells with control siRNA versus CLDN1 siRNA; non-significant

human claudin-1 (human), sequence (O95832 whole entry): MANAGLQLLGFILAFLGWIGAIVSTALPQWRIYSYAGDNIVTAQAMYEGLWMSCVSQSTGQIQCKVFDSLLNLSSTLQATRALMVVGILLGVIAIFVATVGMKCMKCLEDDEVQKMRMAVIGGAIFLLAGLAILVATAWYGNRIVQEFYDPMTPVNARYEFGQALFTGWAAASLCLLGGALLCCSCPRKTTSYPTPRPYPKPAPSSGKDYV

Question: Which fold-change of signal, siCL versus siCLDN1 cells does the source give for “SPT*-Cy5.5 (control scrambled peptide SPTPSSR labeled with Cy5.5 via the GGGSK linker)” here?
Answer: 0.8 fold

— patent US20180052165A1
